B1: SNAP91 (parent)
chain: FSTDAFSSPPQGASPVPESSLTAD

Variants of: B1
Assay: protein stability index of a GFP-peptide fusion (GPS, HEK-293T) (PSI 1-6); higher = more stable
Conditions: c terminus: a fixed tail appended
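Further: lentivirally expressed fusions sorted by FACS into six bins by GFP to DsRed ratio, PSI derived from sequencing read proportions per bin multiplied by bin number.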

Protein stability index of substitutions, site by site:
S7: M 2.84, L 2.96, G 3.89, F 1.99, T 3.33, K 2.96, V 2.32, E 5.35, H 2.51, W 3.15, R 1.62, Q 3.77, I 2.66, P 3.56, A 2.98, C 2.18, N 4.22, D 5.47, Y 2.9
Q11: S 4.17, M 2.69, H 3.43, T 3.75, E 3.9, P 3.27, A 3.33, D 4.01, F 2.68, G 3.34, C 2.56, V 2.88, Y 2.22, N 3.13, L 2.74, R 3.06, I 3.25, K 2.68, W 2.2
F6: C 5.09, V 5.59, N 5.31, I 5.43, G 5.48, M 5.53, W 1.86, S 5.44, Y 3.26, R 5.49, H 5.62, D 5.44, P 5.53, K 5.38, T 5.61, Q 5.63, A 5.57, L 5.55, E 5.69
D4: S 2.82, F 3.06, N 2.66, W 1.67, L 2.63, M 2.92, V 3.28, H 3.44, P 4.29, Y 3.02, Q 3.28, R 2.37, K 2.94, I 3.45, G 2.71, T 2.21
P9: R 2.91, I 2.43, D 3.96, W 2.24, N 3.13, G 2.76, Q 3.02, V 2.74, M 2.16, Y 2.45, L 2.65, K 2.92, S 3.74, T 2.85, H 2.89, E 4.35, F 2.46, C 2.61, A 2.52
A5: F 2.03, E 4.8, M 4.56, I 3.79, N 5.16, V 4.18, S 4.68, Q 4.88, C 4.07, P 4.94, R 4.71, T 4.96, G 4.76, Y 2.33, W 1.92, K 4.71, D 5.61, H 4.59, L 3.55
P10: Y 2.18, Q 3.24, I 2.42, K 3.16, W 1.72, E 3.23, C 2.8, D 3.61, H 2.29, V 2.73, N 2.64, L 3.38, A 3.09, R 2.55, G 2.69, T 2.73, S 2.71, F 2.28, M 2.29
S8: I 2.62, F 3.22, R 2.87, C 2.75, G 3.67, Y 3.39, L 3.29, P 4, V 3.16, H 2.75, K 2.38, A 3.31, D 4.93, M 3.02, Q 2.86, W 3.44, T 3.33, E 4.58, N 2.75
G12: V 2.92, I 2.68, L 2.75, D 3.52, E 3.58, A 3.39, S 2.79, P 2.93, T 3.5, K 2.73, Q 3.35, C 2.62, R 3.11, M 2.58, H 2.63, N 3.08, W 2.32, F 2.6
